Laboratory results taken from patent US20210246166A1 (Bayer, published 2021).
Numbered stars: 1 amine (or outer) side, 2 acyl side, 3 side chain; on linkers, the order of the positions; unused ones are H or OH. Bridge positions count the residues as written; N and C are the ends. Square brackets hold non-standard residues; d marks the D form. Ends that are not written are not given here. * marks the point of attachment. NH(CH2CH2O)5CH2CO = O=C(COCCOCCOCCOCCOCCN[*:1])[*:2]; PEG9 = NCCOCCOCCOCCOCCOCCOCCOCCOCCOCCC(=O)O; Benzoyl(3-COOH) = O=C(O)c1cccc(C(=O)*)c1; Benzoyl(4-COOH) = O=C(O)c1ccc(C(=O)*)cc1; Oic = O=C(O)[C@@H]1C[C@@H]2CCCC[C@@H]2N1; PEG8 = NCCOCCOCCOCCOCCOCCOCCOCCOCCC(=O)O; tBuAla = CC(C)(C)C[C@H](N)C(=O)O; Pen = CC(C)(S)[C@H](N)C(=O)O; PEG2 = NCCOCCOCCC(=O)O; Sar = CNCC(=O)O

T1: Recombinant human MASP1 enzyme (fragment corresponding to amino acids 297-699, C-terminal His Tag) (human, UniProt P48740 297-699)
T1 sequence: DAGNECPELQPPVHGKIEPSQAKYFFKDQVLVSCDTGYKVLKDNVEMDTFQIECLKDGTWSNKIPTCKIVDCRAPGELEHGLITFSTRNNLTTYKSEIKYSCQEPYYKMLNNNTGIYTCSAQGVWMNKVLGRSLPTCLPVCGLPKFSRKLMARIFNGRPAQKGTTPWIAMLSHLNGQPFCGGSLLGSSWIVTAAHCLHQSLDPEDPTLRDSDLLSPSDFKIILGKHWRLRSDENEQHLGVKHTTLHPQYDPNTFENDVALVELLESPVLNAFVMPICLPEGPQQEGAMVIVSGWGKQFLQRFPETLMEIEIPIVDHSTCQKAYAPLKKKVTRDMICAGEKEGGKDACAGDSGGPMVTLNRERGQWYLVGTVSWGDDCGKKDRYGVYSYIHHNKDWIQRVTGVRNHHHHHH

T2: Recombinant human MASP1 active protease (amino acids 297-699, C-terminal His Tag) (human, UniProt P48740 297-699)
T2 sequence: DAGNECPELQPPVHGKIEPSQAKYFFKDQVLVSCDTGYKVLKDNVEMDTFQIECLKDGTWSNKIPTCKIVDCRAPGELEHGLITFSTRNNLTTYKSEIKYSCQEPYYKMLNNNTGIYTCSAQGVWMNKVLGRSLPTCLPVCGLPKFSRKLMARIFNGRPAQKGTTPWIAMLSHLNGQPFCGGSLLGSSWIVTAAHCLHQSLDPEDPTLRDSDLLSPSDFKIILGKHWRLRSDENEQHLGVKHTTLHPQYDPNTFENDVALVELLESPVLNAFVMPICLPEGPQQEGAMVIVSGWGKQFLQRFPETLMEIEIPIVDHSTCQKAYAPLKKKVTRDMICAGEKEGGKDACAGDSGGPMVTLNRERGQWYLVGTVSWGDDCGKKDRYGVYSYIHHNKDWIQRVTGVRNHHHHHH

T3: Recombinant rat MASP1 enzyme (fragment corresponding to amino acids 302-704, C-terminal His Tag) (rat, UniProt Q8CHN8 302-704)
T3 sequence: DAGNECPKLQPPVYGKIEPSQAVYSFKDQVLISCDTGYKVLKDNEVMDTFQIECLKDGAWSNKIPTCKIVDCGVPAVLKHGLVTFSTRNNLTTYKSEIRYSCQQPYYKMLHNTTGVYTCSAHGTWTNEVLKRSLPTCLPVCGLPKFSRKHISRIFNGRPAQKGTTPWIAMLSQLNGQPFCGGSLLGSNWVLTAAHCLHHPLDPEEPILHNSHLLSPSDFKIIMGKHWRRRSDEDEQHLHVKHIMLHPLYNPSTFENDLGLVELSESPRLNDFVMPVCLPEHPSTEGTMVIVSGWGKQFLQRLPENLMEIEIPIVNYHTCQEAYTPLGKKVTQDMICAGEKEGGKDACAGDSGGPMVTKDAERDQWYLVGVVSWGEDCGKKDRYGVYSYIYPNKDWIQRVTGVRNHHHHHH


Tests used:
Experiment in all cases: cell-based or functional assay
[1] = molecular target: T1, Recombinant human MASP1 enzyme …
[2] = molecular target: Recombinant human MASP2 enzyme (fragment corresponding to amino acids 297-686, C-terminal His Tag) (human, UniProt O00187 297-686)
[3] = molecular target: T2, Recombinant human MASP1 active protease …
[4] = molecular target: Recombinant human MASP2 active protease (amino acids 297-686, C-terminal His Tag) (human, UniProt O00187 297-686)
[5] = molecular target: T3, Recombinant rat MASP1 enzyme (fragment …)

Chain of Recombinant human MASP2 enzyme (fragment corresponding to amino acids 297-686, C-terminal His Tag) (O00187 other isoform, or with tags, fused parts or gaps limits assumed): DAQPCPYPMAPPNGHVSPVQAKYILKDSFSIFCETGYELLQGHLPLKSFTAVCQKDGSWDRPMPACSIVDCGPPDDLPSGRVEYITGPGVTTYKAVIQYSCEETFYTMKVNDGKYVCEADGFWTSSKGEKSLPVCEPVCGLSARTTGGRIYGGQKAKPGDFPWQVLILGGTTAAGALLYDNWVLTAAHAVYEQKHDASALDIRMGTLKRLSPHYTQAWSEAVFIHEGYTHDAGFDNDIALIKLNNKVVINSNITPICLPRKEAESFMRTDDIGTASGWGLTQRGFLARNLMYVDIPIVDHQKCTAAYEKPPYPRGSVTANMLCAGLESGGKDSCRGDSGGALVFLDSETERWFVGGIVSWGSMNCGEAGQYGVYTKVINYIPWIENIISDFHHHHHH
Chain of Recombinant human MASP2 active protease (amino acids 297-686, C-terminal His Tag) (O00187 other isoform, or with tags, fused parts or gaps limits assumed): as above

| Binder | human MASP1 IC50 [1] [nM] | human MASP2 IC50 [2] [nM] | human MASP1 IC50 (FRET substrate cleavage, enzyme activity) [3] [nM] | human MASP2 IC50 (FRET substrate cleavage, enzyme activity) [4] [nM] | rat MASP1 IC50 [5] [nM] |
| --- | --- | --- | --- | --- | --- |
| [Sar]ICSRSLP[Oic]I[Pen]IPDA-OH (disulfide 3-11; N-terminus assumed; SMILES CC[C@H](C)[C@H](NC(=O)CNC)C(=O)N[C@H]1CSSC(C)(C)[C@@H](C(=O)N[C@H](C(=O)N2CCC[C@H]2C(=O)N[C@@H](CC(=O)O)C(=O)N[C@@H](C)C(=O)O)[C@@H](C)CC)NC(=O)[C@H]([C@@H](C)CC)NC(=O)[C@@H]2C[C@@H]3CCCC[C@@H]3N2C(=O)[C@@H]2CCCN2C(=O)[C@H](CC(C)C)NC(=O)[C@H](CO)NC(=O)[C@H](CCCNC(=N)N)NC(=O)[C@H](CO)NC1=O) [((N-Me)G)-IC+SRSLP-(Oic)-I-(Pen)+IPDA-OH] | 2.6 | 84 |  |  |  |
| [Sar]ICSRS[tBuAla]PPI[Pen]IP[Sar][Sar][Sar]-OH (disulfide 3-11; N-terminus assumed; SMILES CC[C@H](C)[C@H](NC(=O)CNC)C(=O)N[C@H]1CSSC(C)(C)[C@@H](C(=O)N[C@H](C(=O)N2CCC[C@H]2C(=O)N(C)CC(=O)N(C)CC(=O)N(C)CC(=O)O)[C@@H](C)CC)NC(=O)[C@H]([C@@H](C)CC)NC(=O)[C@@H]2CCCN2C(=O)[C@@H]2CCCN2C(=O)[C@H](CC(C)(C)C)NC(=O)[C@H](CO)NC(=O)[C@H](CCCNC(=N)N)NC(=O)[C@H](CO)NC1=O) [((N-Me)G)-IC+SRS-((tBu)A)-PPI-(Pen)+IP-((N-Me)G)-((N-Me)G)-((N-Me)G)-OH] | 2.3 | 47 |  |  |  |
| {Benzoyl(4-COOH)}-GICSRSLP[Oic]I[Pen]IPD-OH (disulfide 3-11; SMILES CC[C@H](C)[C@H](NC(=O)CNC(=O)c1ccc(C(=O)O)cc1)C(=O)N[C@H]1CSSC(C)(C)[C@@H](C(=O)N[C@H](C(=O)N2CCC[C@H]2C(=O)N[C@@H](CC(=O)O)C(=O)O)[C@@H](C)CC)NC(=O)[C@H]([C@@H](C)CC)NC(=O)[C@@H]2C[C@@H]3CCCC[C@@H]3N2C(=O)[C@@H]2CCCN2C(=O)[C@H](CC(C)C)NC(=O)[C@H](CO)NC(=O)[C@H](CCCNC(=N)N)NC(=O)[C@H](CO)NC1=O) [(4-Carboxybenzoic acid)-GIC+SRSLP-(Oic)-I-(Pen)+IPD-OH] | 19.5 | 21 |  |  |  |
| {Benzoyl(3-COOH)}-GICSRSLP[Oic]I[Pen]IPD-OH (disulfide 3-11; SMILES CC[C@H](C)[C@H](NC(=O)CNC(=O)c1cccc(C(=O)O)c1)C(=O)N[C@H]1CSSC(C)(C)[C@@H](C(=O)N[C@H](C(=O)N2CCC[C@H]2C(=O)N[C@@H](CC(=O)O)C(=O)O)[C@@H](C)CC)NC(=O)[C@H]([C@@H](C)CC)NC(=O)[C@@H]2C[C@@H]3CCCC[C@@H]3N2C(=O)[C@@H]2CCCN2C(=O)[C@H](CC(C)C)NC(=O)[C@H](CO)NC(=O)[C@H](CCCNC(=N)N)NC(=O)[C@H](CO)NC1=O) [(3-Carboxybenzoic acid)-GIC+SRSLP-(Oic)-I-(Pen)+IPD-OH] | 58 | 43 |  |  |  |
| [Sar]ICSRS[tBuAla]PPI[Pen]IP[PEG2]-OH (disulfide 3-11; N-terminus assumed; SMILES CC[C@H](C)[C@H](NC(=O)CNC)C(=O)N[C@H]1CSSC(C)(C)[C@@H](C(=O)N[C@H](C(=O)N2CCC[C@H]2C(=O)NCCOCCOCCC(=O)O)[C@@H](C)CC)NC(=O)[C@H]([C@@H](C)CC)NC(=O)[C@@H]2CCCN2C(=O)[C@@H]2CCCN2C(=O)[C@H](CC(C)(C)C)NC(=O)[C@H](CO)NC(=O)[C@H](CCCNC(=N)N)NC(=O)[C@H](CO)NC1=O) [((N-Me)G)-IC+SRS-((tBu)A)-PPI-(Pen)+IP-(PEG1(10 atoms))-OH] | 2.3 | 39 |  |  |  |
| [Sar]ICSRS[tBuAla]PPI[Pen]IP-{PEG8-OH} (disulfide 3-11) [((N-Me)G)-IC+SRS-((tBu)A)-PPI-(Pen)+IP-(PEG8(28 atoms))-OH] | 7.9 | 76 |  |  |  |
| [Sar]ICSRS[tBuAla]PPI[Pen]IP-{PEG9-OH} (disulfide 3-11) [((N-Me)G)-IC+SRS-((tBu)A)-PPI-(Pen)+IP-(PEG9(31 atoms))-OH] | 6.3 | 62 |  |  |  |
| [Sar]ICSRS[tBuAla]PPI[Pen]IP[NH(CH2CH2O)5CH2CO]-OH (disulfide 3-11; N-terminus assumed; SMILES CC[C@H](C)[C@H](NC(=O)CNC)C(=O)N[C@H]1CSSC(C)(C)[C@@H](C(=O)N[C@H](C(=O)N2CCC[C@H]2C(=O)NCCOCCOCCOCCOCCOCC(=O)O)[C@@H](C)CC)NC(=O)[C@H]([C@@H](C)CC)NC(=O)[C@@H]2CCCN2C(=O)[C@@H]2CCCN2C(=O)[C@H](CC(C)(C)C)NC(=O)[C@H](CO)NC(=O)[C@H](CCCNC(=N)N)NC(=O)[C@H](CO)NC1=O) [((N-Me)G)-IC+SRS-((tBu)A)-PPI-(Pen)+IP-(PEG5-CH2CO2H(18 atoms))-OH] | 2 | 31 |  |  |  |

Results, then the binder that gave them:

| human MASP1 IC50 [1] [nM] | human MASP2 IC50 [2] [nM] | human MASP1 IC50 (FRET substrate cleavage, enzyme activity) [3] [nM] | human MASP2 IC50 (FRET substrate cleavage, enzyme activity) [4] [nM] | rat MASP1 IC50 [5] [nM] | Binder |
| --- | --- | --- | --- | --- | --- |
|  |  | 8 | 390 |  | AICSRSLPPICIPD-NH2 (disulfide 3-11; also: TFA salt) [Ala-1 SFMI-1 amide, AIC+SRSLPPIC+IPD-NH2 (Reference No B)] |
|  |  | 7.45 | 914 |  | AICSRSLPPICIPD-OH (disulfide 3-11; also: TFA salt) [Ala-1 SFMI-1, AIC+SRSLPPIC+IPD-OH (Reference No A)] |
|  |  | 3.6 | 3000 |  | AICSRSLPPICIPD-NH2 (disulfide 3-11; also: HCl salt) [Ala-1 SFMI-1 HCl amide, AIC+SRSLPPIC+IPD-NH2 (HCl Salt) (Reference No C)] |
|  |  | 15.6 | 1090 |  | GICSRSLPPICIPD-OH (disulfide 3-11; also: TFA salt) [SFMI-1, GIC+SRSLPPIC+IPD-OH (Reference No 1)] |
| 3.4 | 37 |  |  |  | [Sar]ICSRSLP[Oic]I[Pen]IPG[dD]-OH (disulfide 3-11; N-terminus assumed; SMILES CC[C@H](C)[C@H](NC(=O)CNC)C(=O)N[C@H]1CSSC(C)(C)[C@@H](C(=O)N[C@H](C(=O)N2CCC[C@H]2C(=O)NCC(=O)N[C@H](CC(=O)O)C(=O)O)[C@@H](C)CC)NC(=O)[C@H]([C@@H](C)CC)NC(=O)[C@@H]2C[C@@H]3CCCC[C@@H]3N2C(=O)[C@@H]2CCCN2C(=O)[C@H](CC(C)C)NC(=O)[C@H](CO)NC(=O)[C@H](CCCNC(=N)N)NC(=O)[C@H](CO)NC1=O) [((N-Me)G)-IC+SRSLP-(Oic)-I-(Pen)+IPGd-OH] |
| 3.2 | 120 |  |  |  | [Sar]ICSRSLP[Oic]I[Pen]IPY-OH (disulfide 3-11; N-terminus assumed; SMILES CC[C@H](C)[C@H](NC(=O)CNC)C(=O)N[C@H]1CSSC(C)(C)[C@@H](C(=O)N[C@H](C(=O)N2CCC[C@H]2C(=O)N[C@@H](Cc2ccc(O)cc2)C(=O)O)[C@@H](C)CC)NC(=O)[C@H]([C@@H](C)CC)NC(=O)[C@@H]2C[C@@H]3CCCC[C@@H]3N2C(=O)[C@@H]2CCCN2C(=O)[C@H](CC(C)C)NC(=O)[C@H](CO)NC(=O)[C@H](CCCNC(=N)N)NC(=O)[C@H](CO)NC1=O) [((N-Me)G)-IC+SRSLP-(Oic)-I-(Pen)+IPY-OH] |
| 3 | 180 |  |  |  | [Sar]ICSRSLP[Oic]I[Pen]IPT-OH (disulfide 3-11; N-terminus assumed; SMILES CC[C@H](C)[C@H](NC(=O)CNC)C(=O)N[C@H]1CSSC(C)(C)[C@@H](C(=O)N[C@H](C(=O)N2CCC[C@H]2C(=O)N[C@H](C(=O)O)[C@@H](C)O)[C@@H](C)CC)NC(=O)[C@H]([C@@H](C)CC)NC(=O)[C@@H]2C[C@@H]3CCCC[C@@H]3N2C(=O)[C@@H]2CCCN2C(=O)[C@H](CC(C)C)NC(=O)[C@H](CO)NC(=O)[C@H](CCCNC(=N)N)NC(=O)[C@H](CO)NC1=O) [((N-Me)G)-IC+SRSLP-(Oic)-I-(Pen)+IPT-OH] |
|  |  | 18 | 610 |  | GICSRSLPPICIPD-NH2 (disulfide 3-11; also: TFA salt) [SFMI-1 amide, GIC+SRSLPPIC+IPD-NH2 (Reference No 3)] |
|  |  |  |  | 210 | AICSRSLPPICIPD-NH2 (disulfide 3-11; also: HCl salt) [AIC+SRSLPPIC+IPD-NH2 (HCl Salt)] |
|  |  | 18 | 610 |  | GICSRSLPPICIPD-OH (disulfide 3-11; also: HCl salt) [SFMI-1 HCl, GIC+SRSLPPIC+IPD-OH (HCl Salt) (Reference No 2)] |
